Results: publication doi:10.1101/2020.10.02.311787 (bioRxiv, 2020)
Positions count from the first letter of the chain named.

B1: anti-PRL-3 nanobody 19 (VHH)
VHH: QVQLQESGGGLVQAGGSLGLSCAASRSIFNFKVMGWYRQAPGKQRELVASITNSDNTYYADSVKGRFTISREDAKTTMYLEMNSLKPEDTAVYRCYGQNWGLRATTYWGQGTQVTVSS
B2: anti-PRL-3 nanobody 84 (VHH)
VHH: B1 VHH with A91T
B3: anti-PRL-3 nanobody 4 (VHH)
VHH: QVQLQESGGGLVQTGGSLRLSCAASQSTYNFDVMGWYRLAPGKQREFLTSITNGGNIYYADSVKGRFTIARDDSKTTMYLEMNSLKPEDTAVYTCYGQTHKPRVTTSWGQGTQVTVSS
B4: anti-PRL-3 nanobody 10 (VHH)
VHH: B3 VHH with Y29F, D32N, T49P, I51L, M78T
B5: anti-PRL-3 nanobody 16 (VHH)
VHH: B3 VHH with Y29F, I69T
B6: anti-PRL-3 nanobody 91 (VHH)
VHH: B3 VHH with Y29F
B7: anti-PRL-3 nanobody 26 (VHH)
VHH: QVQLQESGGGLVQPGGSLKLSCVVTGLHYYTEGWFRQAPGKEREGVSCISSSDGRTDYIDSVKGRFTISEDNDNKTVYLQMNTLKPDDTGVYYCVAERGPRGSTWWETYDYWGQGTHVTVSS

Legend:
[1] = target: T1, Phosphatase of Regenerating Liver-3 (PRL-3), recombinant (Homo sapiens, UniProt O75365); test: BLI
[2] = target: 3XFLAG-PRL-3 in HEK293T cells (Homo sapiens, UniProt O75365); test: pull-down
[3] = target: T1, Phosphatase of Regenerating Liver-3 …; test: ELISA
[4] = target: GFP-PRL-3 in HCT116 cells (Homo sapiens, UniProt O75365); test: immunostaining of cells or tissue
[5] = target: GFP-PRL-2 in HCT116 cells (Homo sapiens, UniProt Q12974); test: immunostaining of cells or tissue
[6] = target: GFP-PRL-1 in HCT116 cells (Homo sapiens, UniProt Q93096); test: immunostaining of cells or tissue
[7] = target: 3XFLAG-tagged PRL-3, recombinant (human, UniProt O75365); test: co-IP
[8] = target: T1, Phosphatase of Regenerating Liver-3 …; test: HDX-MS
[9] = target: 3XFLAG-PRL-3 in HCT116 cells (Homo sapiens, UniProt O75365); test: immunostaining of cells or tissue
[10] = target: untagged (wild-type) PRL-3 in HCT116 cells (Homo sapiens, UniProt O75365); test: immunostaining of cells or tissue
Chain of untagged (wild-type) PRL-3 in HCT116 cells (O75365 whole entry): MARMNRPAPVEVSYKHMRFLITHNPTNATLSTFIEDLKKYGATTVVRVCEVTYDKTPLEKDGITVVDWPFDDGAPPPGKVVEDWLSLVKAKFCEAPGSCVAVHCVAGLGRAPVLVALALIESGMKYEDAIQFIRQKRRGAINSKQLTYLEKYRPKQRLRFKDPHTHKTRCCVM

Chain of GFP-PRL-2 in HCT116 cells (Q12974 whole entry): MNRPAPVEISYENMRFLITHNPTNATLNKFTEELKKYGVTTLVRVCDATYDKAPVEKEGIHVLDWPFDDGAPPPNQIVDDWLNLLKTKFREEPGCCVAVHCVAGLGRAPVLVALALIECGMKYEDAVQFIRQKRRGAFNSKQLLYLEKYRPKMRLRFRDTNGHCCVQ
Chain of GFP-PRL-1 in HCT116 cells (Q93096 whole entry): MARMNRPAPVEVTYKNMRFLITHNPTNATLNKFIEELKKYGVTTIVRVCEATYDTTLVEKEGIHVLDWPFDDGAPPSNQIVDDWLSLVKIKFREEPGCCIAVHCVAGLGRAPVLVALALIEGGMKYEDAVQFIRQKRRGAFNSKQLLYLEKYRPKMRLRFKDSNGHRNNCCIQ
Chain of 3XFLAG-PRL-3 in HEK293T cells (O75365 whole entry): as the sequence (O75365 whole entry) above
T1 sequence (O75365 whole entry): as above
Chain of GFP-PRL-3 in HCT116 cells (O75365 whole entry): as above
Chain of 3XFLAG-tagged PRL-3, recombinant (O75365 whole entry): as above
Chain of 3XFLAG-PRL-3 in HCT116 cells (O75365 whole entry): as above

Binder	Kd [1] [nM]	binding result [2]	binding result [3]	binding result [4]	binding result [5]	binding result [6]	binding result [7]	binding result [8]	binding result [9]	binding result [10]
B1	98.4									
B2		binds	binds	binds						
B3		binds	binds	binds						
B4		binds	binds	binds	no binding (tested: 1:100 of 1 mg/mL)	no binding (tested: 1:100 of 1 mg/mL)				
B5		binds	binds	binds						
B6		binds		binds	no binding (tested: 1:100 of 1 mg/mL)	no binding (tested: 1:100 of 1 mg/mL)	binds	binds	binds	binds
B7	28.9				no binding (tested: 1:100 of 1 mg/mL)	no binding (tested: 1:100 of 1 mg/mL)				
